Reference: patent US11156615B2 (priority 2015, dated 2021)

Legend:
[1] = Glucose binding: isothermal fluorescence titrations, ratiometric (appKd) and monochromatic (trueKd) fits; set-up: key to Glucose appKd / Glucose trueKd: nb, no bonding; conditions: room temperature
Text: 2 For a single glucose-binding site, the fractional saturation is given by
[formula] where ^apoIλ2 and ^satIλ2 are the emission intensities of the monochromatic signal at wavelength λ2 of the ligand-free and ligand-bound protein, respectively.

[2] = Glucose-dependent fluorescence emission intensity spectra of conjugates (Nanodrop3300); format: biochemical; conditions: Nanodrop3300
Text: Semi-synthetic FRSs were engineered by site-specifically attaching thiol-reactive, environmentally sensitive fluorophores that respond to ligand-mediated conformational changes. Identification of FRS candidates that are useful for sensing applications comprises three steps: • 1. Cysteine scan. Mutant glucose-binding proteins containing single cysteines are constructed for site-specific attachment of thiol-reactive fluorophores. […] Candidate positions fall into three classes: endosteric, replacing a residue that contacts the ligand directly; peristeric, located at the rim of the binding site; allosteric (Marvin et al. 1997 Proc Natl Acad Sci USA, 94, 4366-71; Marvin 1998 J Am Chem Soc, 120, 7-11), located outside the binding site at sites that undergo local structural changes in concert with the hinge-bending motion. • 2. Fluorophore screening. Thiol-reactive, environmentally sensitive fluorophores are attached to each cysteine mutant prepared in step 1. • 3. Evaluation of the glucose-mediated change of all the fluorescent conjugates prepared in step 2. Responses to ligand binding in which there is both a change in fluorescence emission intensity and spectral shape was essential for chemometric applications, because such changes enable ratiometric measurements. Changes in spectral shape typically are accompanied by a shift in the wavelength of the emission intensity maxima. Three classes of fluorescent responses are possible: • i. No response. • ii. Monochromatic response (emission intensity increases or decreases without a change in spectral shape) • iii.

[3] = Galactose binding: isothermal fluorescence titrations of conjugates; set-up: key to Galactose trueKd: nb, no bonding; conditions: for S, selectivity = trueKd(galactose)/trueKd(glucose): S > 1, selective for glucose; for Kd: read-out: Galactose trueKd; for Kd / Galactose trueKd: monochromatic titration curves, room temperature
[4] = Thermostability: mid-point thermal denaturation temperature (Tm) from temperature-dependent fluorescence (Roche LightCycler); format: physicochemical; conditions: apo-protein
Method in brief: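 Unfolding tracked by SYPRO binding to denatured protein, fluorescence at 488 nm/510 nm recorded on a LightCycler as temperature rose in 1 K steps. Tm taken as denaturation mid-point, for protein in solution or immobilized on Ni-NTA or NHS-agarose beads.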

[5] = read-out: Glucose appKd, Acrylodan conjugate, dichromatic ratiometry
[6] = read-out: Glucose appKd, Badan conjugate, dichromatic ratiometry
[7] = read-out: Glucose trueKd, Acrylodan conjugate, monochromatic titration curves
[8] = read-out: Glucose trueKd, Badan conjugate, monochromatic titration curves
[9] = Acrylodan conjugate of ttGGBP.17C mutant
[10] = Badan conjugate of ttGGBP.17C mutant

Row | Molecule | Kd [1, 5] | Kd [1, 6] | Kd [1, 7] | Kd [1, 8] | Type of fluorescence response to glucose [2, 9] | Type of fluorescence response to glucose [2, 10] | S, selectivity = trueKd(galactose)/trueKd(glucose) ([3]; Acrylodan conjugate) | S, selectivity = trueKd(galactose)/trueKd(glucose) ([3]; Badan conjugate) | Kd ([3]; Acrylodan conjugate) | Kd ([3]; Badan conjugate) | apoTm ([4]; Badan conjugate) | apoTm ([4]; Acrylodan conjugate) | Glucose appKd ([1]; Badan conjugate, dichromatic ratiometry) | Glucose trueKd ([1]; Badan conjugate, monochromatic titration curves) | Galactose trueKd ([3]; Badan conjugate)
1 | ttGGBP17C.4: affinity-tuning mutant, 17C background, SEQ ID NO: 69 (protein, ttGGBP17C.4 (affinity-tuning mutant, 17C background (Table 6) with signal peptide replaced with M and GGSHHHHHH at C-terminus)) MKQLNIGVAIYKFDDTCMTGVRNAMTAEAQGKAKLNMVDSQNSQPTQNDQVDLFITKKMNALAINPVDRTAAGTIIDKAKQANIPVVFFNREPLPEDMKKWDKVYYVGAKAEQSGILQGQIMADYWKAHPEADKNHDGVMQYVMLMGQPGQQDAILRTQYSIQTVKDAGIKVQELAKDYANWDRVTAHDKMAAWLSSFGDKIEAVFANNDDMALGAIEALKSAGYFTGNKYIPVVGVDATAPGIQAIKDGTLLGTVLNDAKNQAKATFNIAYELAQGITPTKDNIGYDITDGKYVWIPYKKITKDNISDAEQGGSHHHHHH | 50 mM | 16 mM | 48 mM | 6.4 mM | r(h) (r(h), ratiometric (hypsochromic shift)) | r(h) (r(h), ratiometric (hypsochromic shift)) | 0.29 | 2.2 | 14 mM | 14 mM | 347 K | – | – | – | –
2 | ttGGBP17C.6: affinity-tuning mutant, 17C background, SEQ ID NO: 71 (protein, ttGGBP17C.6 (affinity-tuning mutant, 17C background (Table 6) with signal peptide replaced with M and GGSHHHHHH at C-terminus)) MKQLNIGVAIYKFDETCMTGVRNAMTAEAQGKAKLNMVDSQNSQPTQNDQVDLFITKKMNALAINPVDRTAAGTIIDKAKQANIPVVFFNREPLPEDMKKWDKVYYVGAKAEQSGILQGQIMADYWKAHPEADKNHDGVMQYVMLMGQPGHQDAILRTQYSIQTVKDAGIKVQELAKDYANWDRVTAHDKMAAWLSSFGDKIEAVFANNDDMALGAIEALKSAGYFTGNKYIPVVGVDATAPGIQAIKDGTLLGTVLNDAKNQAKATFNIAYELAQGITPTKDNIGYDITDGKYVWIPYKKITKDNISDAEQGGSHHHHHH | – | 3.3 mM | – | 3.6 mM | – | r(h) (r(h), ratiometric (hypsochromic shift)) | – | 1 | – | 3.6 mM | 346 K | – | – | – | –
3 | ttGGBP17C.7: affinity-tuning mutant, 17C background, SEQ ID NO: 72 (protein, ttGGBP17C.7 (affinity-tuning mutant, 17C background (Table 6) with signal peptide replaced with M and GGSHHHHHH at C-terminus)) MKQLNIGVAIYKFDNTCMTGVRNAMTAEAQGKAKLNMVDSQNSQPTQNDQVDLFITKKMNALAINPVDRTAAGTIIDKAKQANIPVVFFNREPLPEDMKKWDKVYYVGAKAEQSGILQGQIMADYWKAHPEADKNHDGVMQYVMLMGQPGHQDAILRTQYSIQTVKDAGIKVQELAKDYANWDRVTAHDKMAAWLSSFGDKIEAVFANNDDMALGAIEALKSAGYFTGNKYIPVVGVDATAPGIQAIKDGTLLGTVLNDAKNQAKATFNIAYELAQGITPTKDNIGYDITDGKYVWIPYKKITKDNISDAEQGGSHHHHHH | 0.3 mM | 0.75 mM | 0.3 mM | 1 mM | d (d, intensity decrease only) | d (d, intensity decrease only) | 0.91 | 0.64 | 0.3 mM | 0.64 mM | 347 K | 348 K | – | – | –
4 | ttGGBP17C.8: affinity-tuning mutant, 17C background, SEQ ID NO: 73 (protein, ttGGBP17C.8 (affinity-tuning mutant, 17C background (Table 6) with signal peptide replaced with M and GGSHHHHHH at C-terminus)) MKQLNIGVAIYKFDDNCMTGVRNAMTAEAQGKAKLNMVDSQNSQPTQNDQVDLFITKKMNALAINPVDRTAAGTIIDKAKQANIPVVFFNREPLPEDMKKWDKVYYVGAKAEQSGILQGQIMADYWKAHPEADKNHDGVMQYVMLMGQPGHQDAILRTQYSIQTVKDAGIKVQELAKDYANWDRVTAHDKMAAWLSSFGDKIEAVFANNDDMALGAIEALKSAGYFTGNKYIPVVGVDATAPGIQAIKDGTLLGTVLNDAKNQAKATFNIAYELAQGITPTKDNIGYDITDGKYVWIPYKKITKDNISDAEQGGSHHHHHH | 0.61 mM | – | 0.6 mM | – | r(h) (r(h), ratiometric (hypsochromic shift)) | – | 0.43 | – | 0.26 mM | – | – | 348 K | – | – | –
5 | ttGGBP17C.20: affinity-tuning mutant, 17C background, SEQ ID NO: 78 (protein, ttGGBP17C.20 (affinity-tuning mutant, 17C background (Table 6) with signal peptide replaced with M and GGSHHHHHH at C-terminus)) MKQLNIGVAIYKFDDTCMTGVRNAMTAEAQGKAKLNMVDSQNSQPTQNDQVDLFITKKMNALAINPVDRTAAGTIIDKAKQANIPVVFFNREPLPEDMKKWDKVYYVGAKAEQSGILQGQIMADYWKAHPEADKNHDGVMQYVMLMGQPGHQDAILRTQYSIQTVKDAGIKVQELAKDYANWDRVTAHDKMAAWLSSFGDKIEAVFANNDDMALGAIEALKSAGYFTGNKYIPVVGVDATAPGIQAIKDGTLLGTVLSDAKNQAKATFNIAYELAQGITPTKDNIGYDITDGKYVWIPYKKITKDNISDAEQGGSHHHHHH | – | – | – | – | d (d, intensity decrease only) | – | – | – | – | – | 344 K | – | nb^e | nb^e | nb^e
6 | ttGGBP17C.23: affinity-tuning mutant, 17C background, SEQ ID NO: 81 (protein, ttGGBP17C.23 (affinity-tuning mutant, 17C background (Table 6) with signal peptide replaced with M and GGSHHHHHH at C-terminus)) MKQLNIGVAIYKFDDTCMTGVRNAMTAEAQGKAKLNMVDSQNSQPTQNDQVDLFITKKMNALAINPVDRTAAGTIIDKAKQANIPVVFFNREPLPEDMKKWDKVYYVGAKAEQSGILQGQIMADYWKAHPEADKNHDGVMQYVMLMGQPGHQDAILRTQYSIQTVKDAGIKVQELAKDYANWDRVTAHDKMAAWLSSFGDKIEAVFANNDDMALGAIEALKSAGYFTGNKYIPVVGVDATAPGIQAIKDGTLLGTVLNDQKNQAKATFNIAYELAQGITPTKDNIGYDITDGKYVWIPYKKITKDNISDAEQGGSHHHHHH | – | 15 mM | – | 18 mM | i (i, intensity increase only) | i (i, intensity increase only) | – | – | – | – | 344 K | – | – | – | nb^c
7 | ttGGBP17C.26: affinity-tuning mutant, 17C background, SEQ ID NO: 84 (protein, ttGGBP17C.26 (affinity-tuning mutant, 17C background (Table 6) with signal peptide replaced with M and GGSHHHHHH at C-terminus)) MKQLNIGVAIYKFDDTCMTGVRNAMTAEAQGKAKLNMVDSQNSQPTQNDQVDLFITKKMNALAINPVDRTAAGTIIDKAKQANIPVVFFNREPLPEDMKKWDKVYYVGAKAEQSGILQGQIMADYWKAHPEADKNHDGVMQYVMLMGQPGHQDAILRTQYSIQTVKDAGIKVQELAKDYANWDRVTAHDKMAAWLSSFGDKIEAVFANNDDMALGAIEALKSAGYFTGNKYIPVVGVDATAPGIQAIKDGTLLGTVLNDWKNQAKATFNIAYELAQGITPTKDNIGYDITDGKYVWIPYKKITKDNISDAEQGGSHHHHHH | – | 0.9 mM | – | 0.9 mM | i (i, intensity increase only) | r(h) (r(h), ratiometric (hypsochromic shift)) | – | 16 | – | 14 mM | 346 K | – | – | – | –
